Measurements reported in the RNAGym collection of RNA variant scans (doi:10.7554/elife.80360).

B1: CPEB3 Ribozyme (parent)
chain: GGGGGCCACAGCAGAAGCGUUCACGUCGCGGCCCCUGUCAGAUUCUGGUGAAUCUGCGAAUUCUGCUGU

Variants of: B1
Assay: self-cleavage, relative activity (ratio to wild type); higher = more cleavage; co-transcriptional
G31A C57G gave a self-cleavage of 0.254.
In the case of G31A A42C, the self-cleavage is reported as 0.601.
G30C G31U showed a self-cleavage of 0.224.
G30U C35U showed a self-cleavage of 0.292.
For G30A G47A, the self-cleavage was 0.916.
Work on G30A G47U yielded a self-cleavage of 0.939.
Variant G31A U61C has a self-cleavage of 0.327.
Variant G31A C39A has a self-cleavage of 0.494.
G30A U46G gave a self-cleavage of 0.888.
Work on G31A U64C yielded a self-cleavage of 0.757.
G31A U64A gave a self-cleavage of 0.511.
With G30C C54A the self-cleavage was 0.346.
In the case of G30A G31A, the self-cleavage is reported as 0.365.
For G30A G31U, the self-cleavage was 0.215.
For G30A U62G, the self-cleavage was 0.413.
G30A U62A gave a self-cleavage of 0.445.
With G31A A52G the self-cleavage was 0.907.
Variant G31A A52U has a self-cleavage of 0.888.
Work on G31A C34U yielded a self-cleavage of 0.605.
G31A C34G gave a self-cleavage of 0.262.
In the case of G30C A42U, the self-cleavage is reported as 0.41.
For G30U A40C, the self-cleavage was 0.192.
G30U A40U showed a self-cleavage of 0.214.
G30U C32U showed a self-cleavage of 0.181.
In the case of G30U C32G, the self-cleavage is reported as 0.216.
For G30A G41U, the self-cleavage was 0.341.
In the case of G31A U53G, the self-cleavage is reported as 0.573.
Work on G30A G37A yielded a self-cleavage of 0.23.
G30A G37U gave a self-cleavage of 0.196.
Work on G30A G37C yielded a self-cleavage of 0.19.
For G30U G65A, the self-cleavage was 0.203.
Variant G30A C63G has a self-cleavage of 0.483.
In the case of G30A C63U, the self-cleavage is reported as 0.839.
For G30U G37U, the self-cleavage was 0.166.
Work on G30C G41C yielded a self-cleavage of 0.232.
G30C G41U showed a self-cleavage of 0.336.
Variant G30C A40U has a self-cleavage of 0.296.
In the case of G30A U67C, the self-cleavage is reported as 0.959.
Work on G30U G41C yielded a self-cleavage of 0.209.
Variant G30A C57G has a self-cleavage of 0.247.
Work on G30A C57A yielded a self-cleavage of 0.258.
G30C G65U showed a self-cleavage of 0.371.
G30C G65A showed a self-cleavage of 0.459.
Work on G30C C39G yielded a self-cleavage of 0.403.
In the case of G30A G50U, the self-cleavage is reported as 0.856.
Variant G30U U69G has a self-cleavage of 0.792.
For G30U U69C, the self-cleavage was 0.865.
With G30C G48U the self-cleavage was 0.706.
G30C C63A gave a self-cleavage of 0.292.
With G31A C63A the self-cleavage was 0.32.
G31A U67G gave a self-cleavage of 1.01.
G31C A42C showed a self-cleavage of 0.227.
G30C U43A showed a self-cleavage of 0.438.
Work on G30C U36C yielded a self-cleavage of 0.273.
Work on G30C C32G yielded a self-cleavage of 0.225.
Variant G30C C32U has a self-cleavage of 0.636.
With G30U A52U the self-cleavage was 0.342.
G30C A51U showed a self-cleavage of 0.61.
Variant G30U A60G has a self-cleavage of 0.176.
For G30C C45G, the self-cleavage was 0.578.
For G30U G50C, the self-cleavage was 0.294.
With G30U G50A the self-cleavage was 0.335.
G30U G50U showed a self-cleavage of 0.47.
Work on G30C C35U yielded a self-cleavage of 0.398.
With G30C C35A the self-cleavage was 0.254.
For G30A G65U, the self-cleavage was 0.436.
For G31A C33G, the self-cleavage was 0.282.
With G30C U62C the self-cleavage was 0.424.
G30U U61A gave a self-cleavage of 0.177.
G30U U61G showed a self-cleavage of 0.215.
In the case of G30A U55A, the self-cleavage is reported as 0.638.
Work on G31C A59G yielded a self-cleavage of 0.255.
With G30U G47C the self-cleavage was 0.395.
With G30U G47A the self-cleavage was 0.436.
Work on G31A U69C yielded a self-cleavage of 1.03.
In the case of G31A U69A, the self-cleavage is reported as 0.991.
Work on G30U U62A yielded a self-cleavage of 0.2.
Variant G30U G68U has a self-cleavage of 0.78.
With G30U G68A the self-cleavage was 0.88.
For G30C U61A, the self-cleavage was 0.258.
Work on G30C U61C yielded a self-cleavage of 0.242.
In the case of G30C G50A, the self-cleavage is reported as 0.621.
G30C G50U showed a self-cleavage of 0.679.
Work on G30C G50C yielded a self-cleavage of 0.536.
With G30A U61G the self-cleavage was 0.447.
With G30A U61C the self-cleavage was 0.39.
For G30A U64A, the self-cleavage was 0.634.
Work on G30A U64G yielded a self-cleavage of 0.624.
Variant G30A G68C has a self-cleavage of 1.01.
G30A G68U showed a self-cleavage of 1.
G30A U36G showed a self-cleavage of 0.166.
G30A U36C showed a self-cleavage of 0.449.
In the case of G30C C57U, the self-cleavage is reported as 0.244.
With G30C C57A the self-cleavage was 0.302.
In the case of G31C A51G, the self-cleavage is reported as 0.364.
In the case of G31C A51U, the self-cleavage is reported as 0.237.
Work on G31C A51C yielded a self-cleavage of 0.161.
G30C U46A showed a self-cleavage of 0.706.
In the case of G30C U46C, the self-cleavage is reported as 0.613.
Work on G30U G31U yielded a self-cleavage of 0.18.
With G31A G48C the self-cleavage was 0.9.
Variant G31A G48A has a self-cleavage of 0.945.
Variant G30U U67C has a self-cleavage of 0.624.
With G30U U67G the self-cleavage was 0.724.
G30C G56U showed a self-cleavage of 0.404.
G30C G56C gave a self-cleavage of 0.236.
For G30U C63U, the self-cleavage was 0.279.
G31A A60C showed a self-cleavage of 0.304.
In the case of G31A A60U, the self-cleavage is reported as 0.322.
In the case of G30U C45U, the self-cleavage is reported as 0.329.
With G30U C45A the self-cleavage was 0.335.
For G31A G37U, the self-cleavage was 0.213.
Variant G31A G58U has a self-cleavage of 0.974.
With G31A G58C the self-cleavage was 0.812.
In the case of G31C C32G, the self-cleavage is reported as 0.249.
With G30U U46G the self-cleavage was 0.441.
Work on G31C A40U yielded a self-cleavage of 0.165.
In the case of G31C A40C, the self-cleavage is reported as 0.203.
G31A A59G gave a self-cleavage of 0.811.
For G30A U49A, the self-cleavage was 0.89.
In the case of G30A U38A, the self-cleavage is reported as 0.621.
Variant G31A U38G has a self-cleavage of 0.245.
G31A U38A gave a self-cleavage of 0.726.
G30U C57G showed a self-cleavage of 0.186.
G30C U64A gave a self-cleavage of 0.467.
Variant G30C U64G has a self-cleavage of 0.455.
Work on G30C U64C yielded a self-cleavage of 0.478.
G31A U46C gave a self-cleavage of 0.9.
Work on G31A U46G yielded a self-cleavage of 0.962.
G30A U69G showed a self-cleavage of 1.01.
Variant G30U U64C has a self-cleavage of 0.353.
Variant G30C C33A has a self-cleavage of 0.248.
In the case of G30C C33G, the self-cleavage is reported as 0.302.
With G31A U55A the self-cleavage was 0.662.
Work on G31A U55G yielded a self-cleavage of 0.569.
Variant G31A U55C has a self-cleavage of 0.547.
G30C U53A gave a self-cleavage of 0.437.
Variant G30C G37A has a self-cleavage of 0.146.
G30C G37C showed a self-cleavage of 0.204.
Work on G30C G37U yielded a self-cleavage of 0.175.
Work on G30A G58A yielded a self-cleavage of 0.682.
Variant G30A G58C has a self-cleavage of 0.858.
G30A G58U showed a self-cleavage of 0.896.
Work on G30U G56U yielded a self-cleavage of 0.231.
Work on G30C U67G yielded a self-cleavage of 0.94.
For G30C U67C, the self-cleavage was 0.883.
Work on G31A G65C yielded a self-cleavage of 0.539.
In the case of G31A G65A, the self-cleavage is reported as 0.711.
Work on G31A G65U yielded a self-cleavage of 0.594.
With G31A C66A the self-cleavage was 0.7.
Work on G31A C66U yielded a self-cleavage of 0.913.
In the case of G31A C32G, the self-cleavage is reported as 0.259.
G31A G41A showed a self-cleavage of 0.525.
Work on G31A C35U yielded a self-cleavage of 0.522.
Work on G31A C35A yielded a self-cleavage of 0.232.
Work on G30A U44G yielded a self-cleavage of 0.579.
Work on G30C C34G yielded a self-cleavage of 0.259.
G30A C66A showed a self-cleavage of 0.559.
In the case of G30C U44C, the self-cleavage is reported as 0.466.
Variant G30C U44G has a self-cleavage of 0.549.
In the case of G30C U44A, the self-cleavage is reported as 0.594.
G30U A42G showed a self-cleavage of 0.27.
G31C C33U gave a self-cleavage of 0.45.
For G30A G48A, the self-cleavage was 0.951.
With G30U C34A the self-cleavage was 0.259.
In the case of G31A G47A, the self-cleavage is reported as 0.897.
For G31A G47C, the self-cleavage was 0.921.
